The text below walks through data of US20160280744A1.

Assay [1] deals with human IgG (Oriental Yeast Co., ltd) (human). Nature of the assay: affinity column (1 ml carrier with immobilised protein), human IgG 1 mg/ml at pH 7.2, 10% breakthrough, flow rate 0.4 mL/min.
Assay [2] has the same target. As to the kind of experiment: pH gradient affinity chromatography, bound at pH 7.2, gradient 20 mM citric acid pH 6.0 to pH 2.4 over 80 min.
Assay [3] shares this target. As to the kind of experiment: affinity column (1 ml carrier with immobilised protein), human IgG 1 mg/ml at pH 7.2, 10% breakthrough, flow rate 1.0 mL/min.

B1: tandem-type tetramer PG, rPG-A4 (CGB19H-4D) (designed binder)
chain: MAYYDPETGTWYSGGRDTYKLILNGKTLKGETTTEAVDAATAEKVFKHYANEHGVHGHWTYDPETKTFTVTERPEVIDASELTPAVDTYKLILNGKTLKGETTTEAVDAATAEKVFKHYANEHGVHGHWTYDPETKTFTVTERPEVIDASELTPAVDTYKLILNGKTLKGETTTEAVDAATAEKVFKHYANEHGVHGHWTYDPETKTFTVTERPEVIDASELTPAVDTYKLILNGKTLKGETTTEAVDAATAEKVFKHYANEHGVHGHWTYDPETKTFTVTERPEVIDASELTPAVGGGGSGGGGSGGGGSGGGGCHHHHHH
Take B1: the dynamic binding capacity (DBC) came to 12.3 mg in assay [1] and 5.3 mg in assay [3]. In assay [2], this molecule returned a pH at the peak of the elution of human IgG of 4.4 pH.
